Experimental findings from patent EP1731161A1 are described below.

The test deals with tumor necrosis factor alpha (TNFα) (rat) (UniProt P16599). Briefly: cell-based or functional assay.
Sequence of UniProt P16599 (P16599 80-235 limits assumed): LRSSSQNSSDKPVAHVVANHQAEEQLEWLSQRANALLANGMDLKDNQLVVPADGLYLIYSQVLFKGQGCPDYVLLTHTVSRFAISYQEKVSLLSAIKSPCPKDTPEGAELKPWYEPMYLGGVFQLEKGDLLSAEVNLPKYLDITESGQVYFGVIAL

Regarding “TNFRII:Fc receptor fragment (from UniProt P20333 23-257) (Fc fusion)”, the SPH release from hypoxic (5 hrs) adult rat cardiomyocytes after pretreatment with TNFRII:Fc (fold reduction) amounted to 3.
